Assay results published in US20240238446.

Legend:
[1] = target: mouse C3b/iC3b deposited from mouse serum on LPS, P01027
mouse C3b/iC3b deposited from mouse serum on LPS, P01027, sequence (P01027 25-1663): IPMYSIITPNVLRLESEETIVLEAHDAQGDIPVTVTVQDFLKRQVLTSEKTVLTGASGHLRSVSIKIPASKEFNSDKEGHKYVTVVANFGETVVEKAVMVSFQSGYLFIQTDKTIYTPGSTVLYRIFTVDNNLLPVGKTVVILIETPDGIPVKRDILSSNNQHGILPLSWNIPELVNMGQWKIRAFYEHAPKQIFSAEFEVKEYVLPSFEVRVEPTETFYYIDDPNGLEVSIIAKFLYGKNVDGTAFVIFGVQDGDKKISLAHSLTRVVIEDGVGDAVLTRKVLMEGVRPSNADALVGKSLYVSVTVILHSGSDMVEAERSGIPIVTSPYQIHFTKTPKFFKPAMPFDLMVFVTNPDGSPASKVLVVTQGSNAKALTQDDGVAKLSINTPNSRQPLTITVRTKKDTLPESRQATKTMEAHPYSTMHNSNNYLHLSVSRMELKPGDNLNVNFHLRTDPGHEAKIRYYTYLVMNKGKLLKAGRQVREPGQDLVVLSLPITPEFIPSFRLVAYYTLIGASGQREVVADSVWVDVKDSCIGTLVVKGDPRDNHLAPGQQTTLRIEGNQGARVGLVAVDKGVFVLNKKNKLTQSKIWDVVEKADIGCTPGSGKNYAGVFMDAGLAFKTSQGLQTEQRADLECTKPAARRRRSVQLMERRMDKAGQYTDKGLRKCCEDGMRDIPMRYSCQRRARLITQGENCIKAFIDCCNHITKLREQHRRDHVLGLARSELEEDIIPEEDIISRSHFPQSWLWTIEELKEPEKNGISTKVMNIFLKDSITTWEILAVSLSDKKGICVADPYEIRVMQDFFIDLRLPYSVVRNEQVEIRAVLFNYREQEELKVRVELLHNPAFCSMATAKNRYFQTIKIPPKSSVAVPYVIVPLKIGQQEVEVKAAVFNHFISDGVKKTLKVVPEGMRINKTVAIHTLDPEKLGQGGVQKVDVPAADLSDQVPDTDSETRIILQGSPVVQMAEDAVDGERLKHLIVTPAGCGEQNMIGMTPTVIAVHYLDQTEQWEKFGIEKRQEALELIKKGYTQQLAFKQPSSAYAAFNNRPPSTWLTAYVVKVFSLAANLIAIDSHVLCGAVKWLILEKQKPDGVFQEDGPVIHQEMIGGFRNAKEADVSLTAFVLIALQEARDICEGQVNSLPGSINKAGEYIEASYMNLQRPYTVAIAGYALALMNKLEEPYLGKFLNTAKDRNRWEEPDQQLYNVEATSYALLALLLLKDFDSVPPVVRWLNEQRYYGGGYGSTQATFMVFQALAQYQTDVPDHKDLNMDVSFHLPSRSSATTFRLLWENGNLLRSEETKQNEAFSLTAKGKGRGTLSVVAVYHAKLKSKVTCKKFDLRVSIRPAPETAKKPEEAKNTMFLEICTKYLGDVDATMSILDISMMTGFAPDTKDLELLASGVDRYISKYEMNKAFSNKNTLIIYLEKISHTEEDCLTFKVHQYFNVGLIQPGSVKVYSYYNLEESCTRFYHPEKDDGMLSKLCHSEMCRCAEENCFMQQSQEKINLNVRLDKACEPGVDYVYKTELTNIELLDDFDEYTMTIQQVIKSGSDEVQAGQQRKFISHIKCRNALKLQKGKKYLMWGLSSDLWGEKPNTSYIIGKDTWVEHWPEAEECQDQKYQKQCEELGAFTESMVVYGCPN

human C3b, P01024, sequence (P01024 whole entry, looked up): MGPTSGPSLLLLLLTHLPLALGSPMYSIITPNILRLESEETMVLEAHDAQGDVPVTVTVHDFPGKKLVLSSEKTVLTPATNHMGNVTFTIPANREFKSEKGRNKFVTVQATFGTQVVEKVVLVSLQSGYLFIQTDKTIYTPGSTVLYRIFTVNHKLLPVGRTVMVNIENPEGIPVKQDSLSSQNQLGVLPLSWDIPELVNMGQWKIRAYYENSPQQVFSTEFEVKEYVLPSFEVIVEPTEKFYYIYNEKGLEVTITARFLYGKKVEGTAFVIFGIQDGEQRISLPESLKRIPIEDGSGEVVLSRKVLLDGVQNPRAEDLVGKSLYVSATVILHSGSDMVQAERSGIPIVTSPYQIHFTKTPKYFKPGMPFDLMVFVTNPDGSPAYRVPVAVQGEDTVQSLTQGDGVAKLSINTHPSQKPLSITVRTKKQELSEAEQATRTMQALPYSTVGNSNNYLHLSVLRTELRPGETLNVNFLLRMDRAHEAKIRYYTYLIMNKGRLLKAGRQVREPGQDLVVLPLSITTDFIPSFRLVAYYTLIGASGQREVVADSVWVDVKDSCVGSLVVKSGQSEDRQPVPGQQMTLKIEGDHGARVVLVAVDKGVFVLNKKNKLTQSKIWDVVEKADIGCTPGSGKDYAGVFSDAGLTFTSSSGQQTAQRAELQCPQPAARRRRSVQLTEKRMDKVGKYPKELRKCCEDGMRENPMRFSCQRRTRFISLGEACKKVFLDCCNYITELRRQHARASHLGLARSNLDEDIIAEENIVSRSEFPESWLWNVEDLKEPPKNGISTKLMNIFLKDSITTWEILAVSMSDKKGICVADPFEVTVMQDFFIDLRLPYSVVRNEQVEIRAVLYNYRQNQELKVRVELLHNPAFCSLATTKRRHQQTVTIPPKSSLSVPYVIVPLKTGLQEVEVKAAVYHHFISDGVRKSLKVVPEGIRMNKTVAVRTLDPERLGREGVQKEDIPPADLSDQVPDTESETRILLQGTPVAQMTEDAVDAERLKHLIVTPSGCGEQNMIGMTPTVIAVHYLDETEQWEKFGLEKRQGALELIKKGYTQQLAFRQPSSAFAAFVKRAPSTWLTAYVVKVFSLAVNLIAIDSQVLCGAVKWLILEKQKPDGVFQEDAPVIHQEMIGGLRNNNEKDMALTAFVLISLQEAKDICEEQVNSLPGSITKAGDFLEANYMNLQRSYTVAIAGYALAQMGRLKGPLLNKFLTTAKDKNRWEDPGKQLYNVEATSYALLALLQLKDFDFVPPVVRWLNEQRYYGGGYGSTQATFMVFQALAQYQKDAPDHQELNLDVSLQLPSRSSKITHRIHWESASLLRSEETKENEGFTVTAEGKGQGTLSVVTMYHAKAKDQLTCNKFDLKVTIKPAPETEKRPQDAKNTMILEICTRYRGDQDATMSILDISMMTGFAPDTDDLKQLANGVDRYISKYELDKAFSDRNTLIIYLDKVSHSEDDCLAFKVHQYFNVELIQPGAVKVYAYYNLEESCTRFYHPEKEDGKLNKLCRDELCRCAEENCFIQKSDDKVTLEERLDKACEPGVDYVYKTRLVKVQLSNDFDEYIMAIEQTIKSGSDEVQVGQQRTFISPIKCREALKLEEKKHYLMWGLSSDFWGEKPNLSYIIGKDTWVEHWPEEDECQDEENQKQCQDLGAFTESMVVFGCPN

B1: mouse Factor I in mouse serum (protein)
chain: RSPSASDLPQEELVDQKCLLQKYTHRSCNKVFCQPWQRCIEGTCICKLPYQCPRAGTPVCAMNGRSYPTYCHQKSFECLHPEIKFSHNGTCAAEGKFNVSLIYGRTKTEGLVQVKLVDQDERMFICKNSWSMAEANVACVDLGFPLGVRDIQGSFNISGNLHINDTECLHVHCRGVETSLAECAFTKRRTELSNGLAGVVCYKQDADFPTSLSFQCVNGKHIPQEKACNGVNDCGDQSDELCCKGCRGNASLCKSGVCIPDQYKCNGEVDCITGEDESRCEEDRQQNIPKGLARSAQGEAEIETEETEMLTPGMDNERKRIKSLLPKLSCGVKRNTHTRRKRVIGGKPANVGDYPWQVAIKDGQRITCGGIYIGGCWILTAAHCVRPSRAHSYQVWTALLDWLKPNSQLGIQTVKRVIVHEKYNGATFQNDIALIEMKMHTGKKECELPNSVPACVPWSPYLFQPNDRCIISGWGRGKDNQKVYSLRWGEVDLIGNCSQFYPDRYYEKEMQCAGTRDGSIDACKGDSGGPLVCEDINNVTYVWGIVSWGENCGKPEFPGVYTRVANYFDWISYHVGRSLVSQHNV
- in vitro C3b and iC3b cleavage assay (western blot with clone 9, generation of C3dg; human Factor H as cofactor, 30 minutes) (human C3b, P01024): more efficiently cleaved to C3dg within the incubation period in the AAV_FI medium and AAV_FI high group
- C3b/iC3b deposition on LPS-coated plate, reduction, serum of AAV high FI group [1]: by 50% in the AAV % high FI group
- C3b/iC3b deposition on LPS-coated plate, reduction, serum of AAV_low FI group [1]: reduced by 11% in the AAV_low FI
- C3b/iC3b deposition on LPS-coated plate, reduction, serum of AAV_medium FI group [1]: by 38% in the AAV_medium FI
